This note sets out measurements from publication PMC6950786 (EBioMedicine, 2020).

The target in this experiment is T1, GST-TNFAIP1(1–316) (UniProt Q13829 1-316).
T1 sequence (looked up): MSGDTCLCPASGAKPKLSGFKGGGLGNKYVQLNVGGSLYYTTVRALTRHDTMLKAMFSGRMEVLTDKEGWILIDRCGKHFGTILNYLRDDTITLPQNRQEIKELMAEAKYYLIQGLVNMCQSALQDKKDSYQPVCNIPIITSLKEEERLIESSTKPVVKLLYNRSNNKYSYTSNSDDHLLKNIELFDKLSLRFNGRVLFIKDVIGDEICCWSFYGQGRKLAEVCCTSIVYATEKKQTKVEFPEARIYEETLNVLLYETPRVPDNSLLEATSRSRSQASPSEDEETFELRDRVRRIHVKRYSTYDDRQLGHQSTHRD
Nature of the experiment: pull-down.

B1: His-CSNK2B (natural protein)
chain: not shown
As for B1, the binding result is reported as “binds”.
